Assay results from article PMC3295762, “Gene Expression of the Tumour Suppressor LKB1 Is Mediated by Sp1, NF-Y and FOXO Transcription Factors”.

B1: LKB1 FOXO site oligo mutant (dsDNA)
DNA 1: GGGGAGGGAGGTAGCCAAGATGGCGGC
DNA 2: GCCGCCATCTTGGCTACCTCCCTCCCC
B2: LKB1 FOXO site oligo WT (dsDNA)
DNA 1: GGGGAGGGAGGTAAACAAGATGGCGGC
DNA 2: GCCGCCATCTTGTTTACCTCCCTCCCC

What was measured:
GST-FOXO3 [1] = target: T1, GST-FOXO3 (UniProt O43524 1-673); experiment: competition; unlabeled excess vs N1 probe; EMSA: 10% glycerol, 12 mM HEPES pH 7.9, 4 mM Tris-HCl pH 7.9, 60 mM KCl, 1 mM DTT, 0.6 mg/ml BSA, 0.5 ug poly(dI-dC), 20 ul, 30 min at 25 C; supershift 1 h at 4 C; conditions: protein: commercial; tags: GST; blunt
GST-FOXO3 [2] = target: T1, GST-FOXO3; experiment: EMSA; EMSA: 10% glycerol, 12 mM HEPES pH 7.9, 4 mM Tris-HCl pH 7.9, 60 mM KCl, 1 mM DTT, 0.6 mg/ml BSA, 0.5 ug poly(dI-dC), 20 ul, 30 min at 25 C; supershift 1 h at 4 C; conditions: protein: commercial; tags: GST; label: 32P; blunt

T1 sequence (O43524 whole entry): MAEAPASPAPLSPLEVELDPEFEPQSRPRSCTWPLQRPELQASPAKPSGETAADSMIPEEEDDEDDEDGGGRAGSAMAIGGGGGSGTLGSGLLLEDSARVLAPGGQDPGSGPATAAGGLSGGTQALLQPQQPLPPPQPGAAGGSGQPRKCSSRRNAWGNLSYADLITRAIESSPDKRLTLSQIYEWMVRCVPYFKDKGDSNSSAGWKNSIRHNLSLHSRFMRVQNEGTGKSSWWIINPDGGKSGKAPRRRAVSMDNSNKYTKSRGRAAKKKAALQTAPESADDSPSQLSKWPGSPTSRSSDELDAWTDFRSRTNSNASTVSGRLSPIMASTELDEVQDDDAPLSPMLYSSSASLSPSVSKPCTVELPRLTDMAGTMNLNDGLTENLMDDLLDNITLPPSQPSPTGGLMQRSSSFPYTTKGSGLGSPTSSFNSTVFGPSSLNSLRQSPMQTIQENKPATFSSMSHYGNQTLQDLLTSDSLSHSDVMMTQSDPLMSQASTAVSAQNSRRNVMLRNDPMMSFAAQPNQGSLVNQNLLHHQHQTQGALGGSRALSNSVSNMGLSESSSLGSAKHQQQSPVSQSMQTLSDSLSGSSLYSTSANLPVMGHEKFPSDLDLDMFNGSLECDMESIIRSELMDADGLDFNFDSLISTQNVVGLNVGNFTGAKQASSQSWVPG

Binder	binding result (GST-FOXO3 [1])	binding result (GST-FOXO3 [2])
B1	no binding	
B2		binds
